Source: publication doi:10.1101/2023.07.15.549169
Where a chain is given by its changes, count along the chain named.

Key:
Experiment in all cases: AlphaScreen or HTRF
Conditions in all cases: remark: other sources report otherwise
[1] = target: T1, His-tagged SMAD4 R361C, Q13485
T1 chain: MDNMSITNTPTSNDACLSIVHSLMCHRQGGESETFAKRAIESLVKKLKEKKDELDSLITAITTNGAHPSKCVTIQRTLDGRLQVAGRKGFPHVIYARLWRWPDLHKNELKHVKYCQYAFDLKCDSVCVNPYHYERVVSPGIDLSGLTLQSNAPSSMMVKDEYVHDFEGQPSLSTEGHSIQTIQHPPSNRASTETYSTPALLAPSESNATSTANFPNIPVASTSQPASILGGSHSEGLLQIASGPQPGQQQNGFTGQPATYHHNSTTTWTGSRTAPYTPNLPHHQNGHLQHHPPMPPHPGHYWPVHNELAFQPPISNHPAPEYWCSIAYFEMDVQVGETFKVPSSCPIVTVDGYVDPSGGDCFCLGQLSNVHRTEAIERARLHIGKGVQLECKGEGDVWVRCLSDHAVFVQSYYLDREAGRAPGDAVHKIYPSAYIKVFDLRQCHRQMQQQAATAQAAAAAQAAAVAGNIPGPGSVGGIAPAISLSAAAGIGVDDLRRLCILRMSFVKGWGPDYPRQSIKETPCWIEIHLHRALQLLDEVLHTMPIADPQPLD

[2] = target: T2, His-tagged SMAD4 WT (Mothers against decapentaplegic homolog 4), Q13485
T2 chain: T1 chain with C361R

[3] = target: T3, His-tagged SMAD4 R361H, Q13485
T3 chain: T1 chain with C361H

B1: Flag-tagged SMAD3 WT, P84022 1-425 (natural protein)
chain: MSSILPFTPPIVKRLLGWKKGEQNGQEEKWCEKAVKSLVKKLKKTGQLDELEKAITTQNVNTKCITIPRSLDGRLQVSHRKGLPHVIYCRLWRWPDLHSHHELRAMELCEFAFNMKKDEVCVNPYHYQRVETPVLPPVLVPRHTEIPAEFPPLDDYSHSIPENTNFPAGIEPQSNIPETPPPGYLSEDGETSDHQMNHSMDAGSPNLSPNPMSPAHNNLDLQPVTYCEPAFWCSISYYELNQRVGETFHASQPSMTVDGFTDPSNSERFCLGLLSNVNRNAAVELTRRHIGRGVRLYYIGGEVFAECLSDSAIFVQSPNCNQRYGWHPATVCKIPPGCNLKIFNNQEFAALLAQSVNQGFEAVYQLTRMCTIRMSFVKGWGAEYRRQTVTSTPCWIELHLNGPLQWLDKVLTQMGSPSIRCSSVS
- reduction of the PPI signal against SMAD4 WT [1]: 75%
- decrease of the PPI signal with 5'-FAM-SBE4 Mut dsDNA against WT dsDNA [2]: 15%
- reduction of the PPI signal against SMAD4 WT [3]: 75%
